Measured values published in patent publication US20240279355A1 (Hoffmann-La Roche, published 2024).

Tests used:
[1] = molecular target: FcRn (neonatal Fc receptor); assay: FcRn affinity chromatography, pH gradient elution; retention time compared to protein standards with known affinities
Protocol: FcRn was expressed, purified and biotinylated as described (Schlothauer et al., MAbs (2013) 5(4), 576-86). For coupling, the prepared receptor was added to streptavidin-sepharose (GE Healthcare). The resulting FcRn-sepharose matrix was packed in a column housing. The column was equilibrated with 20 mM 2-(N-morpholine)-ethanesulfonic acid (MES), 140 mM NaCl, pH 5.5 (eluent A) at a 0.5 ml/min flow rate. 30 μg of antibody samples were diluted at a volume ratio of 1:1 with eluent A and applied to the FcRn column. The column was washed with 5 column volumes of eluent A followed by elution with a linear gradient from 20 to 100% 20 mM Tris/HCl, 140 mM NaCl, pH 8.8 (eluent B) in 35 column volumes. The analysis was performed with a column oven at 25° C. The elution profile was monitored by continuous measurement of the absorbance at 280 nm. Retention times were compared to protein standards with known affinities.

[2] = molecular target: T1, human STEAP-1 (six-transmembrane epithelial antigen of prostate 1) (human, UniProt Q9UHE8 1-339); assay: cell-based ELISA on CHO-K1 cells stably expressing human STEAP1; binding EC50 of the stressed sample against the untreated sample x100
T1 construct: Full-length human STEAP1 stably expressed on CHO-K1 cells (CHO-hSTEAP1); endogenous on LnCAP and 22Rv1 cells in the functional assays; also called hSTEAP-1
Protocol: Characterization of Binding Potency After Stress Using a Cell-Based ELISA To quantify the reduction in binding potency caused by 1-4 weeks stress at either pH 7.4 or 6.0, a cell-based ELISA was employed using CHO-K1 cells stably expressing human STEAP1. For this cell-based ELISA, 10,000 cells were seeded per well of a 96-well plate and incubated for 18 h at 37° C., 5% CO₂. Supernatant was removed using an automated washer (BIOTEK), and 100 μl of a dilution series (10 pM-30 nM) of antibody constructs in growth medium was added to each well. After 1 h of incubation at 4° C., wells were emptied and 100 μl of 0.05% glutaraldehyde in PBS added for 10 min at RT. After 4 washes with PBS/0.025% Tween20 (PBST), 100 μl of anti-human-IgG-HRP (Jackson) diluted 1:20000 in Blocking buffer (Roche) was added and plates incubated for 1 h at room temperature (RT). Wells were washed 6 times with PBST and signal was generated using 100 μl of TMB per well, the reaction stopped after 10 minutes with 50 μl 1 M HCl and absorbance measured at 450 nm. Data (Table 4) were expressed as “% binding”, dividing the binding EC50 of the stressed sample by that of the untreated sample multiplied by 100.

[3] = molecular target: T1, human STEAP-1 (six-transmembrane …); assay: flow cytometry on CHO-K1 cells stably transfected with full-length human STEAP1, PerCP anti-human IgG secondary
From the text: A gene encoding full-length human STEAP1 was subcloned into mammalian expression vector. The plasmid was transfected into CHO-K1 (ATCC CRL-9618) cells using Lipofectamine LTX Reagent according to the manufacturer's protocol (Invitrogen, #15338100). Stably transfected STEAP1-positive CHO cells were maintained in DMEM/F-12 medium (Gibco, #11320033) supplemented with 10% fetal bovine serum (Gibco, #16140063) and 1% GlutaMAX Supplement (Gibco; #31331-028). Two days after transfection, puromycin (Invivogen; #ant-pr-1) was added to 6 μg/mL and the cells were cultured for several passages. After initial selection, the cells with the highest cell surface expression of STEAP1 were sorted by BD FACSAria II cell sorter (BD Biosciences) and cultured to establish stable cell clones. The expression level and stability was confirmed by FACS analysis using vandortuzumab and PerCP-conjugated Fc gamma-specific goat anti-human IgG (Jackson ImmunoResearch, #109-126-097) as secondary antibody over a period of 4 weeks.

Sequence of FcRn (neonatal Fc receptor) (P55899 24-297, chain 1 of 2): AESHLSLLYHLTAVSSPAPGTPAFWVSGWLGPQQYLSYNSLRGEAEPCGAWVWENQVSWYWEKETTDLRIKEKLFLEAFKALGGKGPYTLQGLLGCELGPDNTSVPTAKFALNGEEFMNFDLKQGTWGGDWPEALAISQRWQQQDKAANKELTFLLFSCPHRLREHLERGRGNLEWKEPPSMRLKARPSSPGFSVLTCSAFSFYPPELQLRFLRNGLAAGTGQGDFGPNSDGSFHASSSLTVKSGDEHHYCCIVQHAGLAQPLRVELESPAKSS
Sequence of FcRn (neonatal Fc receptor) (P61769 21-119, chain 2 of 2, further chain): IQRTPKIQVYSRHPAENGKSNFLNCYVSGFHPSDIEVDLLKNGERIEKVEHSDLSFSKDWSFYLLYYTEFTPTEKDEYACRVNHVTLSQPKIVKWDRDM
T1 sequence (Q9UHE8 whole entry): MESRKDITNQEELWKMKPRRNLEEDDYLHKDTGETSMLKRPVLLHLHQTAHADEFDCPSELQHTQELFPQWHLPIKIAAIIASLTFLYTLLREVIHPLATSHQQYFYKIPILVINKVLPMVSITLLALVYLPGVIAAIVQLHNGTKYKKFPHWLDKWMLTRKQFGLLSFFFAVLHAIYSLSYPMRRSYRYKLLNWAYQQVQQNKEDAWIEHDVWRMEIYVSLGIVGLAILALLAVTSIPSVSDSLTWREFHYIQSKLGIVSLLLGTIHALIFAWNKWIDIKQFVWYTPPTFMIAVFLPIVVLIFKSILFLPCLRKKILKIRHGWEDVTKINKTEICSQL

| Binder | FcRn affinity [1] | Relative binding potency (%) (after 28 days at 40° C., pH 6) [2] | binding result [3] |
| --- | --- | --- | --- |
| Molecule A: 2+1 IgG CrossFab inverted anti-STEAP1/anti-CD3 T cell bispecific (TCB) antibody with the vandortuzumab variable domains (bispecific antibody, Two STEAP1 Fabs (charge modifications EE/RK) and one CD3 CrossFab (VH/VL exchange), human IgG1 Fc with knob-into-hole and PGLALA; also called STEAP-1 TCB antibody) heavy 1: EVQLVESGGGLVQPGGSLRLSCAVSGYSITSDYAWNWVRQAPGKGLEWVGYISNSGSTSYNPSLKSRFTISRDTSKNTLYLQMNSLRAEDTAVYYCARERNYDYDDYYYAMDYWGQGTLVTVSSASTKGPSVFPLAPSSKSTSGGTAALGCLVEDYFPEPVTVSWNSGALTSGVHTFPAVLQSSGLYSLSSVVTVPSSSLGTQTYICNVNHKPSNTKVDEKVEPKSCDKTHTCPPCPAPEAAGGPSVFLFPPKPKDTLMISRTPEVTCVVVDVSHEDPEVKFNWYVDGVEVHNAKTKPREEQYNSTYRVVSVLTVLHQDWLNGKEYKCKVSNKALGAPIEKTISKAKGQPREPQVCTLPPSRDELTKNQVSLSCAVKGFYPSDIAVEWESNGQPENNYKTTPPVLDSDGSFFLVSKLTVDKSRWQQGNVFSCSVMHEALHNHYTQKSLSLSP heavy 2: not shown light 1: DIQMTQSPSSLSASVGDRVTITCKSSQSLLYRSNQKNYLAWYQQKPGKAPKLLIYWASTRESGVPSRFSGSGSGTDFTLTISSLQPEDFATYYCQQYYNYPRTFGQGTKVEIKRTVAAPSVFIFPPSDRKLKSGTASVVCLLNNFYPREAKVQWKVDNALQSGNSQESVTEQDSKDSTYSLSSTLTLSKADYEKHKVYACEVTHQGLSSPVTKSFNRGEC light 2: EVQLLESGGGLVQPGGSLRLSCAASGFTFSTYAMNWVRQAPGKGLEWVSRIRSKYNNYATYYADSVKGRFTISRDDSKNTLYLQMNSLRAEDTAVYYCVRHGNFGNSYVSWFAYWGQGTLVTVSSASVAAPSVFIFPPSDEQLKSGTASVVCLLNNFYPREAKVQWKVDNALQSGNSQESVTEQDSKDSTYSLSSTLTLSKADYEKHKVYACEVTHQGLSSPVTKSFNRGEC | 0.61 | 66% |  |
| Molecule B: 2+1 IgG CrossFab inverted anti-STEAP1/anti-CD3 TCB antibody, D100aE mutation in both STEAP1 binding moieties (bispecific antibody, Same format as Molecule A; also called STEAP-1 TCB antibody variant (ED)) heavy 1: EVQLVESGGGLVQPGGSLRLSCAVSGYSITSDYAWNWVRQAPGKGLEWVGYISNSGSTSYNPSLKSRFTISRDTSKNTLYLQMNSLRAEDTAVYYCARERNYDYEDYYYAMDYWGQGTLVTVSSASTKGPSVFPLAPSSKSTSGGTAALGCLVEDYFPEPVTVSWNSGALTSGVHTFPAVLQSSGLYSLSSVVTVPSSSLGTQTYICNVNHKPSNTKVDEKVEPKSCDKTHTCPPCPAPEAAGGPSVFLFPPKPKDTLMISRTPEVTCVVVDVSHEDPEVKFNWYVDGVEVHNAKTKPREEQYNSTYRVVSVLTVLHQDWLNGKEYKCKVSNKALGAPIEKTISKAKGQPREPQVCTLPPSRDELTKNQVSLSCAVKGFYPSDIAVEWESNGQPENNYKTTPPVLDSDGSFFLVSKLTVDKSRWQQGNVFSCSVMHEALHNHYTQKSLSLSP heavy 2: not shown light 1: DIQMTQSPSSLSASVGDRVTITCKSSQSLLYRSNQKNYLAWYQQKPGKAPKLLIYWASTRESGVPSRFSGSGSGTDFTLTISSLQPEDFATYYCQQYYNYPRTFGQGTKVEIKRTVAAPSVFIFPPSDRKLKSGTASVVCLLNNFYPREAKVQWKVDNALQSGNSQESVTEQDSKDSTYSLSSTLTLSKADYEKHKVYACEVTHQGLSSPVTKSFNRGEC light 2: EVQLLESGGGLVQPGGSLRLSCAASGFTFSTYAMNWVRQAPGKGLEWVSRIRSKYNNYATYYADSVKGRFTISRDDSKNTLYLQMNSLRAEDTAVYYCVRHGNFGNSYVSWFAYWGQGTLVTVSSASVAAPSVFIFPPSDEQLKSGTASVVCLLNNFYPREAKVQWKVDNALQSGNSQESVTEQDSKDSTYSLSSTLTLSKADYEKHKVYACEVTHQGLSSPVTKSFNRGEC | 0.69 | 79% |  |
| Molecule C: 2+1 IgG CrossFab inverted anti-STEAP1/anti-CD3 TCB antibody, D100bE mutation in both STEAP1 binding moieties (bispecific antibody, Same format as Molecule A; also called STEAP-1 TCB antibody variant (DE)) heavy 1: EVQLVESGGGLVQPGGSLRLSCAVSGYSITSDYAWNWVRQAPGKGLEWVGYISNSGSTSYNPSLKSRFTISRDTSKNTLYLQMNSLRAEDTAVYYCARERNYDYDEYYYAMDYWGQGTLVTVSSASTKGPSVFPLAPSSKSTSGGTAALGCLVEDYFPEPVTVSWNSGALTSGVHTFPAVLQSSGLYSLSSVVTVPSSSLGTQTYICNVNHKPSNTKVDEKVEPKSCDKTHTCPPCPAPEAAGGPSVFLFPPKPKDTLMISRTPEVTCVVVDVSHEDPEVKFNWYVDGVEVHNAKTKPREEQYNSTYRVVSVLTVLHQDWLNGKEYKCKVSNKALGAPIEKTISKAKGQPREPQVCTLPPSRDELTKNQVSLSCAVKGFYPSDIAVEWESNGQPENNYKTTPPVLDSDGSFFLVSKLTVDKSRWQQGNVFSCSVMHEALHNHYTQKSLSLSP heavy 2: not shown light 1: DIQMTQSPSSLSASVGDRVTITCKSSQSLLYRSNQKNYLAWYQQKPGKAPKLLIYWASTRESGVPSRFSGSGSGTDFTLTISSLQPEDFATYYCQQYYNYPRTFGQGTKVEIKRTVAAPSVFIFPPSDRKLKSGTASVVCLLNNFYPREAKVQWKVDNALQSGNSQESVTEQDSKDSTYSLSSTLTLSKADYEKHKVYACEVTHQGLSSPVTKSFNRGEC light 2: EVQLLESGGGLVQPGGSLRLSCAASGFTFSTYAMNWVRQAPGKGLEWVSRIRSKYNNYATYYADSVKGRFTISRDDSKNTLYLQMNSLRAEDTAVYYCVRHGNFGNSYVSWFAYWGQGTLVTVSSASVAAPSVFIFPPSDEQLKSGTASVVCLLNNFYPREAKVQWKVDNALQSGNSQESVTEQDSKDSTYSLSSTLTLSKADYEKHKVYACEVTHQGLSSPVTKSFNRGEC |  | 69% |  |
| Molecule D: 2+1 IgG CrossFab inverted anti-STEAP1/anti-CD3 TCB antibody, D100aE/D100bE mutations in both STEAP1 binding moieties (bispecific antibody, Same format as Molecule A; also called STEAP-1 TCB antibody variant (EE)) heavy 1: EVQLVESGGGLVQPGGSLRLSCAVSGYSITSDYAWNWVRQAPGKGLEWVGYISNSGSTSYNPSLKSRFTISRDTSKNTLYLQMNSLRAEDTAVYYCARERNYDYEEYYYAMDYWGQGTLVTVSSASTKGPSVFPLAPSSKSTSGGTAALGCLVEDYFPEPVTVSWNSGALTSGVHTFPAVLQSSGLYSLSSVVTVPSSSLGTQTYICNVNHKPSNTKVDEKVEPKSCDKTHTCPPCPAPEAAGGPSVFLFPPKPKDTLMISRTPEVTCVVVDVSHEDPEVKFNWYVDGVEVHNAKTKPREEQYNSTYRVVSVLTVLHQDWLNGKEYKCKVSNKALGAPIEKTISKAKGQPREPQVCTLPPSRDELTKNQVSLSCAVKGFYPSDIAVEWESNGQPENNYKTTPPVLDSDGSFFLVSKLTVDKSRWQQGNVFSCSVMHEALHNHYTQKSLSLSP heavy 2: not shown light 1: DIQMTQSPSSLSASVGDRVTITCKSSQSLLYRSNQKNYLAWYQQKPGKAPKLLIYWASTRESGVPSRFSGSGSGTDFTLTISSLQPEDFATYYCQQYYNYPRTFGQGTKVEIKRTVAAPSVFIFPPSDRKLKSGTASVVCLLNNFYPREAKVQWKVDNALQSGNSQESVTEQDSKDSTYSLSSTLTLSKADYEKHKVYACEVTHQGLSSPVTKSFNRGEC light 2: EVQLLESGGGLVQPGGSLRLSCAASGFTFSTYAMNWVRQAPGKGLEWVSRIRSKYNNYATYYADSVKGRFTISRDDSKNTLYLQMNSLRAEDTAVYYCVRHGNFGNSYVSWFAYWGQGTLVTVSSASVAAPSVFIFPPSDEQLKSGTASVVCLLNNFYPREAKVQWKVDNALQSGNSQESVTEQDSKDSTYSLSSTLTLSKADYEKHKVYACEVTHQGLSSPVTKSFNRGEC | 0.65 | 100% |  |
| vandortuzumab (antibody, V domains shown) VH: EVQLVESGGGLVQPGGSLRLSCAVSGYSITSDYAWNWVRQAPGKGLEWVGYISNSGSTSYNPSLKSRFTISRDTSKNTLYLQMNSLRAEDTAVYYCARERNYDYDDYYYAMDYWGQGTLVTVSS VL: DIQMTQSPSSLSASVGDRVTITCKSSQSLLYRSNQKNYLAWYQQKPGKAPKLLIYWASTRESGVPSRFSGSGSGTDFTLTISSLQPEDFATYYCQQYYNYPRTFGQGTKVEIK |  |  | binds |
